# B1: rcG-CSF: recombinant canine G-CSF (protein, UniProt P35834 1-175, looked up)
# Granulocyte …: MAPLGPTGPLPQSFLLKCLEQMRKVQADGTALQETLCATHQLCHPEELVLLGHALGIPQPPLSSCSSQALQLMGCLRQLHSGLFLYQGLLQALAGISPELAPTLDTLQLDTTDFAINIWQQMEDLGMAPAVPPTQGTMPAFTSAFQRRAGGVLVASNLQSFLELAYRALRHFAKP
# B2: V19.8 rat SCF^1-162: recombinant rat SCF truncated at amino acid 162, supernatant of COS-1 or CHO cells transfected with V19.8 (protein)
# chain: MKKTQTWIITCIYLQLLLFNPLVKTQEICRNPVTDNVKDITKLVANLPNDYMITLNYVAGMDVLPSHCWLRDMVTHLSVSLTTLLDKFSNISEGLSNYSIIDKLGKIVDDLVACMEENAPKNVKESLKKPETRNFTPEEFFSIFNRSIDAFKDFMVASDTSD
# How the values were obtained:
# irradiated dogs = experiment: Canine DLA-identical littermate marrow transplantation; assay type: in vivo, dog; settings: 920 cGy TBI + marrow
# From the text: SCF alone enhances hematopoietic recovery following bone marrow transplantation. A variety of experimental variables have been tested in a canine model of bone marrow transplantation, Schuening et al., 76 636–640. In one set of experiments for the present invention, dogs received either G-CSF or SCF after 920 cGy of total body irradiation and 4×10^8 mononuclear marrow cells per kilogram from a DLA-identical littermate. The hematologic recovery, as measured by day of neutrophil recovery to 500 or 1000/mm^3, is accelerated when either SCF or G-CSF is administered compared to control animals that received no growth factor (Table 21). Recovery was 2–6 days earlier in animals that received SCF than it was in those that received no growth factor. As noted above, combinations of appropriate growth factors with SCF will accelerate and enhance the response to those growth factors following hematopoietic transplantation.
# [1] = system: 5-FU treated mouse bone marrow cells; experiment: HPP-CFC assay; assay type: cell-based; settings: COS-1 supernatant
# From the text: There are a variety of biological activities which can be attributed to the natural mammalian rat SCF as well as the recombinant rat SCF protein. One such activity is its effect on early hematopoietic cells. This activity can be measured in a High Proliferative Potential Colony Forming Cell (HPP-CFC) assay [Zsebo, et al., supra (1988)]. To investigate the effects of factors on early hematopoietic cells, the HPP-CFC assay system utilizes mouse bone marrow derived from animals 2 days after 5-fluorouracil (5-FU) treatment. […] The rat SCF is plated in the presence of CSF-1 or IL-6 in semi-solid agar cultures. The agar cultures contain McCoys complete medium (GIBCO), 20% fetal bovine serum, 0.3% agar, and 2×10^5 bone marrow cells/ml. The McCoys complete medium contains the following components: 1× McCoys medium supplemented with 0.1 mM pyruvate, 0.24× essential amino acids, 0.24× non-essential amino acids, 0.027% sodium bicarbonate, 0.24× vitamins, 0.72 mM glutamine, 25 μg/ml L-serine, and 12 μg/ml L-asparagine. The bone marrow cells are obtained from Balb/c mice injected i.v. with 150 mg/kg 5-FU. The femurs are harvested 2 days post 5-FU treatment of the mice and bone marrow is flushed out. The red blood cells are lysed with red blood cell lysing reagent (Becton Dickenson) prior to plating. Test substances are plated with the above mixture in 30 mm dishes. Fourteen days later the colonies (>1 mm in diameter) which contain thousands of cells are scored. This assay was used throughout the purification of natural mammalian cell-derived rat SCF.
# [2] = system: murine mast cell line, MC/9; experiment: MC/9 ^3H-thymidine uptake assay; assay type: cell-based
# Description: Another useful biological activity of both naturally-derived and recombinant rat SCF is the ability to cause the proliferation of the […] murine mast cell line, MC/9 (ATCC CRL 8306). MC/9 cells are cultured with a source of […] according to the ATCC CRL 8306 protocol. The medium used in the bioassay is RPMI 1640, 4% fetal bovine serum, 5×10^−5M 2-mercaptoethanol, and 1× glutamine-pen-strep. The MC/9 cells proliferate in response to SCF without the requirement for other growth factors. This proliferation is measured by first culturing the cells for 24 h without growth factors, plating 5000 cells in each well of 96 well plates with test sample for 48 h, pulsing for 4 h with 0.5 uCi ^3H-thymidine (specific activity 20 Ci/mmol), harvesting the solution onto glass fiber filters, and then measuring specifically-bound radioactivity. This assay was used in the purification of mammalian cell derived rat SCF after the ACA 54 gel filtration step, section C2 of this Example. Typically, SCF caused a 4–10 fold increase in CPM over background.
# normal human bone marrow = experiment: Human CFU-GM assay; assay type: cell-based
# human bone marrow = experiment: Human bone marrow colony assay; assay type: cell-based; settings: COS-1 CM, 20 U/ml EPO, 14 days, colonies ≥0.2 mm
# Description: The cDNA of human SCF corresponding to amino acids 1–162 obtained by PCR reactions outlined in Example 3D, was expressed in COS-1 cells as described for the rat SCF in Example 4. COS-1 supernatants were assayed on human bone marrow as well as in the murine HPP-CFC and MC/9 assays. […] The culture conditions of the assay were as follows: human bone marrow from healthy volunteers was centrifuged over Ficoll-Hypaque gradients (Pharmacia) and cultured in 2.1% methyl cellulose, 30% fetal calf serum, 6×10^−5 M 2-mercaptoethanol, 2 mM glutamine, ISCOVE'S medium (GIBCO), 20 U/ml EPO, and 1×10^5 cells/ml for 14 days in a humidified atmosphere containing 7% O2, 10% CO2, and 83% N2. Only those colonies of 0.2 mm in size or larger are indicated.
# Recombinant human SCF was tested in agar colony assays on human bone marrow in combination with other growth factors as described above.
# KG-1 = KG-1 soft agar cloning assay; assay type: cell-based, human; settings: COS-1 supernatant, 25 μl assayed; triplicate
# Description: Another activity of recombinant human SCF is the ability to cause proliferation in soft agar of the human acute myelogenous leukemia (AML) cell line, KG-1 (ATCC CCL 246). COS-1 supernatants from transfected cells were tested in a KG-1 agar cloning assay [Koeffler et al., Science, 200, 1153–1154 (1978)] essentially as described except cells were plated at 3000/ml.
# W/W^v mice = experiment: Bone marrow transplantation model in W/W^v mice; assay type: in vivo, mouse
# Description: A. Rat SCF in Bone Marrow Transplanation COS-1 cells were transfected with V19.8 SCF^1-162 in a large scale experiment (T175 cm^2 flasks instead of 60 mm dishes) as described in Example 4. Approximately 270 ml of supernatant was harvested. This supernatant was chromatographed on wheat germ agglutinin-agarose and S-Sepharose essentially as described in Example 1. The recombinant SCF was evaluated in a bone marrow transplantation model based on murine W/W^v genetics. The W/W^v mouse has a stem cell defect which among other features results in a macrocytic anemia (large red cells) and allows for the transplantation of bone marrow from normal animals without the need for irradiation of the recipient animals [Russel, et al., Science, 144, 844–846 (1964)). […]
# In the following example, each group contained six age matched mice. […] The blood profile of the recipient animals is followed at different times post transplantation and engraftment of the donor marrow is determined by the shift of the peripheral blood cells from recipient to donor phenotype. The conversion from recipient to donor phenotype is detected by monitoring the forward scatter profile (FASCAN, Becton Dickenson) of the red blood cells. […] An independent qualitative indicator of engraftment is the hemoglobin type detected by hemoglobin electrophoresis of the recipient blood [Wong, et al., Mol. and Cell. […]
molecule,measurement,setting,value
B1,Recovery of ANC > 1000/mm^3,irradiated dogs; 10 days treatment following transplant,Day 8
same,Recovery of ANC > 500 mm^3,"irradiated dogs; 10 days treatment following transplant (rcSCF 200, rcG-CSF 10 μg/kg/day SC)",Day 7
B2,"Colony #/200,000 cells",[1]; 3 μl CM assayed,8
same,"Colony #/200,000 cells",[1]; 6 μl CM assayed,30
same,"Colony #/200,000 cells",[1]; 12 μl CM assayed,>50
same,"Colony #/200,000 cells",[1]; 25 μl CM assayed,>50
same,"Colony #/200,000 cells",[1]; 50 μl CM assayed,>50
same,"Colony #/200,000 cells",[1]; 100 μl CM assayed,>50
same,cpm,"[2]; COS-1 supernatant, 3 μl CM assayed","9,638 cpm"
same,cpm,"[2]; COS-1 supernatant, 6 μl CM assayed","11,482 cpm"
same,cpm,"[2]; COS-1 supernatant, 12 μl CM assayed","11,322 cpm"
same,cpm,"[2]; COS-1 supernatant, 25 μl CM assayed","11,648 cpm"
same,cpm,"[2]; stable CHO cell supernatant, volume assayed 1.5","7,160 cpm"
same,cpm,"[2]; stable CHO cell supernatant, volume assayed 3","14,714 cpm"
same,cpm,"[2]; stable CHO cell supernatant, volume assayed 6","30,657 cpm"
same,cpm,"[2]; stable CHO cell supernatant, volume assayed 12","34,973 cpm"
same,cpm,"[2]; stable CHO cell supernatant, volume assayed 25","33,926 cpm"
same,synergistic activity in CFU-GM assay,normal human bone marrow,"synergized with human GM-CSF, human IL-3, and human CSF-1"
same,"Colony #/100,000 cells (±SEM)","normal human bone marrow; average of triplicate cultures, SCF = COS-1 supernatant 4 days after transfection",0
same,"Colony #/100,000 cells ± SD",human bone marrow; 50 μl assayed,10
same,"Colony #/100,000 cells ± SD",human bone marrow; 100 μl assayed,13 ± 1
same,Colony #/3000 Cells ± SD,KG-1,6 ± 1
same,time to conversion to donor phenotype,"W/W^v mice; SCF pre-treated group (600 U/ml, 37° C., 20 min)",≤ 29 days post-transplantation
same,engraftment of donor marrow vs untreated control,W/W^v mice; cells pre-treated with 600 U/ml or recipients ~400 U/day sub-Q for 3 days,engrafted faster
